3 substances from article PMC7107572 can be followed below.

The nature of data set [1]: sucrose density gradient ultracentrifugation, anti-Flag blot. Particulars: glycan lost; control: PKM2wt.
Data set [2] is described as follows: basal ECAR, Seahorse XF24. The following applies: glycan lost; control: PKM2wt cells.
Data set [3] in a line: exogenous PKM2 protein level in xenograft tumors. The following applies: glycan lost; control: PKM2wt tumors.
The nature of data set [4]: residual medium glucose normalised to cell number. The following applies: glycan lost; control: PKM2wt cells.
Data set [5] can be described thus: LDH-coupled pyruvate kinase assay, PEP titration, HeLa. The following applies: glycan lost; control: PKM2wt.
Data set [6] in a line: pyruvate kinase activity, HeLa lysate. The following applies: glycan gained; control: vector and OGTcd.
Data set [7] in a line: IP of HN-PKM2, anti-acetyl-lysine blot, 25 mM glucose. The following applies: glycan lost; control: PKM2wt.

In the case of pyruvate kinase M2 (PKM2): T365A, in data set [1], the oligomerisation result was “increases”. Moreover, in data set [2], the “other: glycolytic flux” value is “decreases”. The expression_or_secretion entry in data set [3] is given as “no change”. The “other: cellular glucose consumption” value in data set [4] is on record as “decreases”. Also, the enzymatic_activity entry in data set [5] is “increases”.

Turning to “pyruvate kinase M2 (PKM2): OGTwt overexpression”, the enzymatic_activity entry in data set [6] is “decreases”.

Consider pyruvate kinase M2 (PKM2): S362A, for which the oligomerisation entry in data set [1] was “increases”. The “other: glycolytic flux” value in data set [2] was “decreases”. Besides, in data set [7], the “other: OGA-induced lysine acetylation” value is given as “no change”. Further, the expression_or_secretion result in data set [3] was “no change”. The “other: cellular glucose consumption” value in data set [4] was “decreases”. Besides, the enzymatic_activity result in data set [5] was “increases”.
